Results published in patent US7172876B2, “Method of screening therapeutic agents for nerve degeneration associated diseases” (Takeda Pharmaceutical Company Limited, priority 2002, dated 2007).
Substitutions are numbered along the chain they refer to. Ends that are not written are not given here. * marks the point of attachment. For = O=C*

Legend:
FPRL1 [1] = molecular target: T1, FPRL1 (Homo sapiens, UniProt P25090); conditions: reported in the literature; cited from earlier work
T1 sequence (P25090 1-351): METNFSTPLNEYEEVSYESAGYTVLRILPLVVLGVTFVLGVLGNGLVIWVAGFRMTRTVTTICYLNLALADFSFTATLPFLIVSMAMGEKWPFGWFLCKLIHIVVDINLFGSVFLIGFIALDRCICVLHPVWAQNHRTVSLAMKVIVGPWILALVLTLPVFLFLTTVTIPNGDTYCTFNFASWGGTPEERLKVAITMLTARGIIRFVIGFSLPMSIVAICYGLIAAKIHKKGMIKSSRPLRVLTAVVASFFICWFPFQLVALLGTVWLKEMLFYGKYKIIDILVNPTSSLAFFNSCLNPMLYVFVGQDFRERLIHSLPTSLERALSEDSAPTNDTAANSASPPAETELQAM

FPRL2 [2] = molecular target: T2, FPRL2 (Homo sapiens, UniProt P25089); conditions: reported in the literature; cited from earlier work
T2 sequence (P25089 1-353): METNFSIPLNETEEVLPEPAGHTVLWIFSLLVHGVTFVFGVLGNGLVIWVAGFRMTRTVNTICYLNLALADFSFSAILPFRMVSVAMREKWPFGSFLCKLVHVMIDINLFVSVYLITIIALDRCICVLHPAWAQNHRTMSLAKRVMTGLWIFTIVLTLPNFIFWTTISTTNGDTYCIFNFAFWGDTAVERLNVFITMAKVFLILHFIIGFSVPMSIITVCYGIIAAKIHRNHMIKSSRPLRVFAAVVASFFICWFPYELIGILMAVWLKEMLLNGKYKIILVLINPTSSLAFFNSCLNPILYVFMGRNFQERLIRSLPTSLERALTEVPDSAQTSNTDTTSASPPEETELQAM

mFPRL2 = molecular target: T3, mFPRL2 (Mus musculus, UniProt O88536); assay: Inhibition of forskolin-increased intracellular cAMP in mouse FPRL2-expressing CHO cells; type: cell-based; conditions: 1 μM forskolin
T3 construct: expressed in transfected cells; host or cells: CHO cells (clone No. 15); expression vector pAKKO-111H
T3 sequence (O88536 1-351): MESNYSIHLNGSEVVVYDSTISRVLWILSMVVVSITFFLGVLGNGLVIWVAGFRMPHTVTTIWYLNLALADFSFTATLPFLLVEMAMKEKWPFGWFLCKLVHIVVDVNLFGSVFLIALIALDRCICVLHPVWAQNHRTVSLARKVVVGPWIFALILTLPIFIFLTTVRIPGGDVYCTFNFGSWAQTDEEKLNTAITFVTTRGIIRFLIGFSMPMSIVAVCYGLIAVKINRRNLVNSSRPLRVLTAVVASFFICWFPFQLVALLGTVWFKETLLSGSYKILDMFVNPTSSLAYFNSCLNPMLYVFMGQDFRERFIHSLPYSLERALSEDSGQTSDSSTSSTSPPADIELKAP
Description: (§1) CHO cells expressing each receptor were washed with an assay medium (HBSS (GibcoBRL) supplemented with 0.1% bovine serum albumin and 0.2 mM IBMX) and then cultured at 37° C. in 5% CO2 for 30 minutes. Humanin (Peptide Research Laboratory, Co.) or related substances diluted at each concentration with the assay buffer were added thereto, and then forskolin was added at a final concentration of 1 μM. The cells were cultured at 37° C. in 5% CO2 for 30 minutes. The culture supernatant was discarded, and the amount of cAMP in the cells was measured with a plate reader (ARVO sx multi-label counter, manufactured by Wallac) according to a protocol of a cAMP screen kit (Applied Biosystems). Assuming that the amount of cAMP produced in the cells to which 1 μM forskolin had been added was 100% and the amount of cAMP produced in the cells to which forskolin had not been added was 0%, the amount of cAMP upon addition of each agonist is shown in %. The concentration at which the amount of cAMP produced was inhibited by 50% (EC50) was calculated from logit-log plotting.

FPRL1 [3] = molecular target: T1, FPRL1; assay: Inhibition of forskolin-increased intracellular cAMP in human FPRL1-expressing CHO cells; type: cell-based; set-up: expressed in transfected cells; host or cells: CHO cells (clone No. 8; the title also lists a 'Human FPRL1' clone No. 14); conditions: 1 μM forskolin
rFPRL1 = assay: Inhibition of forskolin-increased intracellular cAMP in rat FPRL1-expressing CHO cells; type: cell-based; conditions: 1 μM forskolin
Description: as §1

hFPRL2 = molecular target: T4, hFPRL2 (Homo sapiens, UniProt P25089); assay: Inhibition of forskolin-increased intracellular cAMP in human FPRL2-expressing CHO cells; type: cell-based; conditions: 1 μM forskolin
T4 construct: expressed in transfected cells; host or cells: CHO cells (clone No. 17)
T4 sequence (P25089 1-353 G94A/S211T/D338H): T2 sequence (P25089 1-353) with G94A, S211T, D338H
Description: as §1

FPRL2 [4] = molecular target: T2, FPRL2; conditions: reported in the literature; cited from earlier work; remark: listed apart in the source
FPRL1-GFP = assay: Inhibition of forskolin-increased intracellular cAMP in CHO cells expressing FPRL1-GFP; type: cell-based; conditions: 1 μM forskolin; CHO cells expressing FPRL1-GFP compared with mock CHO cells (vector only)
Description: CHO cells expressing FPRL1-GFP were washed with an assay medium (HBSS (GibcoBRL) supplemented with 0.1% bovine serum albumin and 0.2 mM IBMX) and then cultured at 37° C. in 5% CO2 for 30 minutes. Humanin (Peptide Research Laboratory, Co.) or related substances diluted at each concentration with the assay buffer were added thereto, and then forskolin was added at a final concentration of 1 μM. The cells were cultured at 37° C. in 5% CO2 for 30 minutes. The culture supernatant was discarded, and the amount of cAMP in the cells was measured with a plate reader (ARVO sx multi-label counter, manufactured by Wallac) according to a protocol of a cAMP screen kit (Applied Biosystems).

nerve cells = conditions: reported in the literature; cited from earlier work

Chain of rFPRL1 (as listed by the source): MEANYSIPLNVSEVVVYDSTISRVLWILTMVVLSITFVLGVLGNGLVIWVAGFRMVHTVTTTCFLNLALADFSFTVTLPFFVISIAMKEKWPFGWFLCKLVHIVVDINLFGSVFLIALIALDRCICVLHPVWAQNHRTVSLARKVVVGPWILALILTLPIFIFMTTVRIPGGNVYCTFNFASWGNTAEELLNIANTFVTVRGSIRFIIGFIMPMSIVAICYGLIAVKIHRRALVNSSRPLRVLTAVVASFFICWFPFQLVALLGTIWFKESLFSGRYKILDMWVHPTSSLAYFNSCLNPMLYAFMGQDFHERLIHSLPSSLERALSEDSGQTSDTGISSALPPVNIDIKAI

Row | Compound | reaction with mFPRL2 (inhibition of forskolin-increased intracellular cAMP) (mFPRL2) | reaction with hFPRL1 (inhibition of forskolin-increased intracellular cAMP) (FPRL1 [3]) | reaction with rFPRL1 (inhibition of forskolin-increased intracellular cAMP) (rFPRL1) | also measured
1 | CCCCC[C@H](O)/C=C/C=C\C=C\C=C\[C@@H](O)[C@@H](O)CCCC(=O)O [lipoxin A4] |  |  |  | agonist of FPRL1 (FPRL1 [1]): Agonists
2 | Aβ42: β-amyloid (1-42), intrinsic substance reported as agonist of FPRL1 |  |  |  | agonist of FPRL1 (FPRL1 [1]): agonist
3 | Trp-Lys-Tyr-Met-Val-dMet-NH2 [W-Peptide] |  |  |  | agonist of FPRL2 (FPRL2 [2]): agonist
4 | [Gly^14]-humanin: [Gly^14]-human humanin (1-24) consisting of the amino acid sequence represented by SEQ ID NO: 4 (MAPRGFSCLLLLTGEIDLPVKRRA; Human) | react | react | react | reaction with hFPRL2 (inhibition of forskolin-increased intracellular cAMP) (hFPRL2): strongly
5 | formyl-Humanin: human humanin (1-24), SEQ ID NO: 3, wherein Met of the N-terminus is formylated | react |  | react | 
6 | formyl-Met-Leu-Phe [fMLF] |  |  |  | reaction of human FPRL2 with fMLF (FPRL2 [4]): does not react
7 | humanin: human humanin (1-24) consisting of the amino acid sequence represented by SEQ ID NO: 3 | react | react | react | decrease of the amount of intracellular cAMP increased by addition of forskolin (FPRL1-GFP): dose-dependent and specific decrease; death of nerve cells into which the familial Alzheimer's disease gene had been introduced (nerve cells): inhibited; nerve apotosis induced by adding β-amyloid (nerve cells): inhibited; reaction with hFPRL2 (inhibition of forskolin-increased intracellular cAMP) (hFPRL2): strongly
8 | mt-formyl-Humanin: human humanin (1-21), SEQ ID NO: 6, wherein Met at the N-terminus is formylated (For-MAPRGFSCLLLLTSEIDLPVK) | react | strongly | react | 
9 | mt-formyl-rattin: rat humanin (1-21), SEQ ID NO: 9, wherein Met at the N-terminus is formylated (For-MAKRGFNCLLLSISEIDLPVK) | react | strongly | react | 
